B1: Protein kinase C and casein kinase substrate in neurons protein 1 (Mus musculus), Q61644 (parent)
chain: MSGSYDEASEEITDSFWEVGNYKRTVKRIDDGHRLCNDLMSCVQERAKIEKAYAQQLTDWAKRWRQLIEKGPQYGSLERAWGAMMTEADKVSELHQEVKNSLLNEDLEKVKNWQKDAYHKQIMGGFKETKEAEDGFRKAQKPWAKKMKELEAAKKAYHLACKEERLAMTREMNSKTEQSVTPEQQKKLVDKVDKCRQDVQKTQEKYEKVLEDVGKTTPQYMEGMEQVFEQCQQFEEKRLVFLKEVLLDIKRHLNLAENSSYMHVYRELEQAIRGADAQEDLRWFRSTSGPGMPMNWPQFEEWNPDLPHTTAKKEKQPKKAEGATLSNATGAVESTSQAGDRGSVSSYDRGQTYATEWSDDESGNPFGGNEANGGANPFEDDAKGVRVRALYDYDGQEQDELSFKAGDELTKLGEEDEQGWCRGRLDSGQLGLYPANYVEAI

Variants of: B1
Conditions: with Mapt

Variant | effect of a mutation on the interaction
P434L | disrupting interaction

Source: IntAct's records for PubMed 23035120
